Patent US20210371527A1 (IMAGINAB, published 2021)

Target: T1, human CD4 on HPB-ALL cells (human, UniProt P01730 26-458)
T1 construct: The assay used HPB-ALL cells; no signal peptide limits are stated; also called HPB-ALL cells (human T cell leukemia, DSMZ ACC 483); HPC-ALL
Assay: flow cytometry on HPB-ALL cells

Row | binding result | Binder
1 | binds | deferoxamine conjugated humanized IAB41-1 minibody (other, deferoxamine (Df) chelator conjugated; sites of conjugation not stated, also called Df-Hu-IAB41-1) EIVLTQSPATLSLSPGERATLSCSARSSVSYLYWYQQKPGQAPRLLIYDTSNLASGIPDRFSGSGSGTDFTLTISRLEPEDAAVYYCQQWSDYPLTFGGGTKLEIKGSTSGGGSGGGSGGGGSSQVQLVQSGAEVKKPGASVKVSCKASGYSFANYWMHWVRQAPGQRLEWIGALYPGNVDTTYNQKFQGRVTITRDTSASTAYMELSSLRSEDTAVYYCTRMGTTLEAPLDYWGQGTLVTVSSEPKSSDKTHTCPPCPPCGGGSSGGGSGGQPREPQVYTLPPSREEMTKNQVSLTCLVKGFYPSDIAVEWESNGQPENNYKTTPPVLDSDGSFFLYSKLTVDKSRWQQGNVFSCSVMHEALHNHYTQKSLSLSPG
2 | binds | humanized IAB41-1 minibody (other, also called Hu-IAB41-1; Construct 41-1) EIVLTQSPATLSLSPGERATLSCSARSSVSYLYWYQQKPGQAPRLLIYDTSNLASGIPDRFSGSGSGTDFTLTISRLEPEDAAVYYCQQWSDYPLTFGGGTKLEIKGSTSGGGSGGGSGGGGSSQVQLVQSGAEVKKPGASVKVSCKASGYSFANYWMHWVRQAPGQRLEWIGALYPGNVDTTYNQKFQGRVTITRDTSASTAYMELSSLRSEDTAVYYCTRMGTTLEAPLDYWGQGTLVTVSSEPKSSDKTHTCPPCPPCGGGSSGGGSGGQPREPQVYTLPPSREEMTKNQVSLTCLVKGFYPSDIAVEWESNGQPENNYKTTPPVLDSDGSFFLYSKLTVDKSRWQQGNVFSCSVMHEALHNHYTQKSLSLSPG
